Experimental data published in patent US12059458B2, “Peptides and combination of peptides and scaffolds for use in immunotherapy against renal cell carcinoma (RCC) and other cancers” (Immatics Biotechnologies GmbH, priority 2015, dated 2024).

System: CD8+ T cells of healthy HLA-A*02 donors
Test: In vitro immunogenicity: T-cell priming with aAPCs loaded with peptide/MHC complexes and anti-CD28 antibody, pMHC multimer readout
Format: cell-based, human
Settings: Table 10B
Description: In order to obtain information regarding the immunogenicity of the TUMAPs of the present invention, the inventors performed investigations using an in vitro T-cell priming assay based on repeated stimulations of CD8+ T cells with artificial antigen presenting cells (aAPCs) loaded with peptide/MHC complexes and anti-CD28 antibody.
In order to perform in vitro stimulations by artificial antigen presenting cells loaded with peptide-MHC complex (pMHC) and anti-CD28 antibody, the inventors first isolated CD8+ T cells from fresh HLA-A*02 leukapheresis products via positive selection using CD8 microbeads (Miltenyi Biotec, Bergisch-Gladbach, Germany) of healthy donors obtained from the University clinics Mannheim, Germany, after informed consent.
PBMCs and isolated CD8+ lymphocytes were incubated in T-cell medium (TCM) until use consisting of RPMI-Glutamax (Invitrogen, Karlsruhe, Germany) supplemented with 10% heat inactivated human AB serum (PAN-Biotech, Aidenbach, Germany), 100 U/ml Penicillin/100 μg/ml Streptomycin (Cambrex, Cologne, Germany), 1 mM sodium pyruvate (CC Pro, Oberdorla, Germany), 20 μg/ml Gentamycin (Cambrex). 2.5 ng/ml IL-7 (PromoCell, Heidelberg, Germany) and 10 U/ml IL-2 (Novartis Pharma, Nümberg, Germany) were also added to the TCM at this step.
Generation of pMHC/anti-CD28 coated beads, T-cell stimulations and readout was performed in a highly defined in vitro system using four different pMHC molecules per stimulation condition and 8 different pMHC molecules per readout condition.
The purified co-stimulatory mouse IgG2a anti human CD28 Ab 9.3 (Jung et al., 1987) was chemically biotinylated using Sulfo-N-hydroxysuccinimidobiotin as recommended by the manufacturer (Perbio, Bonn, Germany). Beads used were 5.6 μm diameter streptavidin coated polystyrene particles (Bangs Laboratories, Illinois, USA).
pMHC used for positive and negative control stimulations were A*0201/MLA-001 (peptide […] (SEQ ID NO. 152) from modified Melan-A/MART-1) and A*0201/DDX5-001 ([…] from DDX5 (SEQ ID NO. 153)), respectively.
800.000 beads/200 μl were coated in 96-well plates in the presence of 4×12.5 ng different biotin-pMHC, washed and 600 ng biotin anti-CD28 were added subsequently in a volume of 200 μl. Stimulations were initiated in 96-well plates by co-incubating […] CD8+ T cells with 2×10^5 washed coated beads in 200 μl TCM supplemented with 5 ng/ml IL-12 (PromoCell) for 3 days at 37° C. Half of the medium was then exchanged by fresh TCM supplemented with 80 U/ml IL-2 and incubating was continued for 4 days at 37° C. This stimulation cycle was performed for a total of three times. For the pMHC multimer readout using 8 different pMHC molecules per condition, a two-dimensional combinatorial coding approach was used as previously described (Andersen et al., 2012) with minor modifications encompassing coupling to 5 different fluorochromes. Finally, multimeric analyses were performed by staining the cells with Live/dead near IR dye (Invitrogen, Karlsruhe, Germany), CD8-FITC antibody clone SK1 (BD, Heidelberg, Germany) and fluorescent pMHC multimers. For analysis, a BD LSRII SORP cytometer equipped with appropriate lasers and filters was used. Peptide specific cells were calculated as percentage of total CD8+ cells. Evaluation of multimeric analysis was done using the FlowJo software (Tree Star, Oregon, USA). In vitro priming of specific multimer+ CD8+ lymphocytes was detected by comparing to negative control stimulations.

Substance | Wells positive [%]
1 (ALIVSLPYL; listed as Homo sapiens) [compound 1] | + (<20% = +)
2 (ILWREVVTL; listed as Homo sapiens) [compound 2] | + (<20% = +)
3 (RLLGEVQAL; listed as Homo sapiens) [compound 3] | + (<20% = +)
6 (VLFELSKTV; listed as Homo sapiens) [compound 6] | + (<20% = +)
7 (FLLSLIDRL; listed as Homo sapiens) [compound 7] | + (<20% = +)
9 (ILLQKPDSV; listed as Homo sapiens) [compound 9] | + (<20% = +)
15 (ILIKHLVKV; listed as Homo sapiens) [compound 15] | + (<20% = +)
16 (FMPEELPQL; listed as Homo sapiens) [compound 16] | + (<20% = +)
18 (YVLDLAAKV; listed as Homo sapiens) [compound 18] | ++ (20%-49% = ++)
20 (AVANTTFTV; listed as Homo sapiens) [compound 20] | + (<20% = +)
22 (FLSPPLPSV; listed as Homo sapiens) [compound 22] | ++ (20%-49% = ++)
29 (ILLDLEQAL; listed as Homo sapiens) [compound 29] | + (<20% = +)
34 (ELNNQNFYL; listed as Homo sapiens) [compound 34] | ++ (20%-49% = ++)
36 (SLFGKKYIL; listed as Homo sapiens) [compound 36] | ++ (20%-49% = ++)
94 (ILHHKVYDL; listed as Homo sapiens) [compound 94] | ++ (20%-49% = ++)

Same assay, conditions: percentage of positive donors, Table 10A

Substance | donors
123 (YVDPVITSI; listed as Homo sapiens) [compound 123] | ++++ (> = 70% = ++++)
127 (VLAPLFVYL; listed as Homo sapiens) [compound 127] | ++++ (> = 70% = ++++)
143 (ALFVRLLALA; listed as Homo sapiens) [compound 143] | +++ (50%-69% = +++)

Same assay, conditions: percentage of positive wells, Table 10A

Substance | wells
123 (YVDPVITSI; listed as Homo sapiens) [compound 123] | + (<20% = +)
127 (VLAPLFVYL; listed as Homo sapiens) [compound 127] | ++ (20%-49% = ++)
143 (ALFVRLLALA; listed as Homo sapiens) [compound 143] | + (<20% = +)

Biological target: HLA-A*02:01 (Homo sapiens, UniProt P04439, D140Y/D185E/D98H/E176V/E277Q/G131W/G231S/I119V/I121R/I166T/I218V/L300P/L318F/N151K/N90K/P208A/P217A/Q86G/Q94H/R138H/R169H/T345S)
Test: MHC binding assay (UV-ligand exchange, beta2m ELISA, peptide exchange yield)
Settings: binding to HLA-A*02:01 ranged by peptide exchange yield, β2m ELISA
Description: Candidate peptides for T cell based therapies according to the present invention were further tested for their MHC binding capacity (affinity). The individual peptide-MHC complexes were produced by UV-ligand exchange, where a UV-sensitive peptide is cleaved upon UV-irradiation, and exchanged with the peptide of interest as analyzed. Only peptide candidates that can effectively bind and stabilize the peptide-receptive MHC molecules prevent dissociation of the MHC complexes. To determine the yield of the exchange reaction, an ELISA was performed based on the detection of the light chain (β2m) of stabilized MHC complexes. The assay was performed as generally described in Rodenko et al. (Rodenko et al., 2006).
96 well MAXISorp plates (NUNC) were coated over night with 2 ug/ml streptavidin in PBS at room temperature, washed 4× and blocked for 1 h at 37° C. in 2% BSA containing blocking buffer. Refolded HLA-A*02:01/MLA-001 monomers served as standards, covering the range of 15-500 ng/ml. Peptide-MHC monomers of the UV-exchange reaction were diluted 100 fold in blocking buffer. Samples were incubated for 1 h at 37° C., washed four times, incubated with 2 ug/ml HRP conjugated anti-β2m for 1h at 37° C., washed again and detected with TMB solution that is stopped with […]. Absorption was measured at 450 nm. Candidate peptides that show a high exchange yield (preferably higher than 50%, most preferred higher than 75%) are generally preferred for a generation and production of antibodies or fragments thereof, and/or T cell receptors or fragments thereof, as they show sufficient avidity to the MHC molecules and prevent dissociation of the MHC complexes.

Substance | Peptide exchange (MHC class I binding score)
1 (ALIVSLPYL; listed as Homo sapiens) [compound 1] | +++ (≥50 = +++)
2 (ILWREVVTL; listed as Homo sapiens) [compound 2] | +++ (≥50 = +++)
3 (RLLGEVQAL; listed as Homo sapiens) [compound 3] | ++ (≥20% = ++)
6 (VLFELSKTV; listed as Homo sapiens) [compound 6] | +++ (≥50 = +++)
7 (FLLSLIDRL; listed as Homo sapiens) [compound 7] | +++ (≥50 = +++)
9 (ILLQKPDSV; listed as Homo sapiens) [compound 9] | ++ (≥20% = ++)
15 (ILIKHLVKV; listed as Homo sapiens) [compound 15] | ++ (≥20% = ++)
16 (FMPEELPQL; listed as Homo sapiens) [compound 16] | ++ (≥20% = ++)
18 (YVLDLAAKV; listed as Homo sapiens) [compound 18] | +++ (≥50 = +++)
20 (AVANTTFTV; listed as Homo sapiens) [compound 20] | ++ (≥20% = ++)
22 (FLSPPLPSV; listed as Homo sapiens) [compound 22] | +++ (≥50 = +++)
29 (ILLDLEQAL; listed as Homo sapiens) [compound 29] | +++ (≥50 = +++)
34 (ELNNQNFYL; listed as Homo sapiens) [compound 34] | +++ (≥50 = +++)
36 (SLFGKKYIL; listed as Homo sapiens) [compound 36] | ++ (≥20% = ++)
85 (FVMSEIRTV; listed as Homo sapiens) [compound 85] | +++ (≥50 = +++)
86 (GLLQGKLALL; listed as Homo sapiens) [compound 86] | ++ (≥20% = ++)
88 (TLAELHISL; listed as Homo sapiens) [compound 88] | ++ (≥20% = ++)
89 (SLLLAVTEV; listed as Homo sapiens) [compound 89] | ++ (≥20% = ++)
90 (FTLEKNFVI; listed as Homo sapiens) [compound 90] | ++ (≥20% = ++)

Other lines, results leading:

Peptide exchange (MHC class I binding score) | Substance
++ (≥20% = ++) | 91 (MLLSSLVSL; listed as Homo sapiens) [compound 91]
+++ (≥50 = +++) | 92 (FLFRDILEL; listed as Homo sapiens) [compound 92]
++++ (≥75% = ++++) | 93 (GVMAGDIYSV; listed as Homo sapiens) [compound 93]
++ (≥20% = ++) | 94 (ILHHKVYDL; listed as Homo sapiens) [compound 94]
+++ (≥50 = +++) | 96 (TLAETLVNL; listed as Homo sapiens) [compound 96]
++ (≥20% = ++) | 97 (TLISELVQA; listed as Homo sapiens) [compound 97]
++ (≥20% = ++) | 99 (GLAPHLEQI; listed as Homo sapiens) [compound 99]
++ (≥20% = ++) | 100 (KLNVAPLAV; listed as Homo sapiens) [compound 100]
++ (≥20% = ++) | 101 (HIYDKAFITV; listed as Homo sapiens) [compound 101]
+++ (≥50 = +++) | 102 (LLFDVHTTL; listed as Homo sapiens) [compound 102]
++ (≥20% = ++) | 103 (KLQDGLLHI; listed as Homo sapiens) [compound 103]
+++ (≥50 = +++) | 104 (ALFEGVVRQI; listed as Homo sapiens) [compound 104]
+++ (≥50 = +++) | 105 (ALADLDELLIRA; listed as Homo sapiens) [compound 105]
+++ (≥50 = +++) | 106 (VLMDLKALL; listed as Homo sapiens) [compound 106]
+++ (≥50 = +++) | 107 (VLMDLKALLL; listed as Homo sapiens) [compound 107]
++ (≥20% = ++) | 108 (VLISVLQAI; listed as Homo sapiens) [compound 108]
++++ (≥75% = ++++) | 109 (YLWSRVEKL; listed as Homo sapiens) [compound 109]
++ (≥20% = ++) | 110 (LLDLHSYLL; listed as Homo sapiens) [compound 110]
++ (≥20% = ++) | 111 (TLLETEMLL; listed as Homo sapiens) [compound 111]
+++ (≥50 = +++) | 112 (LLFDHLEPIEL; listed as Homo sapiens) [compound 112]
+++ (≥50 = +++) | 113 (SLFDWNVKL; listed as Homo sapiens) [compound 113]
+++ (≥50 = +++) | 114 (ALAVNISAA; listed as Homo sapiens) [compound 114]
